From patent publication US20260207704A1, “STAPLED PEPTIDES AND METHODS THEREOF” (priority 2022, published 2026) come the findings set out here.

Usually IC50 stands for the concentration at which inhibition is half-maximal. A higher IC50 goes with lower potency.

*1 amine or outer side, *2 acyl side, *3 side chain or, on linkers, in order; H or OH if unused. Bridges are numbered along the chain shown (N, C = ends). Primed or numbered codes have the meaning given here. [ ]: non-standard residue; d: D form. PyrS2(6) = (S)-3-amino-1-((pent-4-en-1-yloxy)carbonyl)pyrrolidine-3-carboxylic acid, stapled with another olefin-containing amino acid residue through the olefin group, O=C(OCCCC=[*:3])N1CC[C@@](N[*:1])(C(=O)[*:2])C1; B5(4) = 2-amino-2-(pent-4-en-1-yl)hept-6-enoic acid, stapled through each of its two olefin groups with other olefin-containing amino acid residues, O=C(C(CCCC=[*:3])(CCCC=[*:4])N[*:1])[*:2]; PyrS2″ = (S)-3-amino-1-((pent-4-en-1-yloxy)carbonyl)pyrrolidine-3-carboxylic acid (olefin stapling residue), C=CCCCOC(=O)N1CC[C@@](N[*:1])(C(=O)[*:2])C1; PyrS2(3) = (S)-3-amino-1-((pent-4-en-1-yloxy)carbonyl)pyrrolidine-3-carboxylic acid, olefin residue, C=CCCCOC(=O)N1CC[C@@](N[*:1])(C(=O)[*:2])C1; PyrS2(5) = (S)-3-amino-1-((pent-4-en-1-yloxy)carbonyl)pyrrolidine-3-carboxylic acid, C=CCCCOC(=O)N1CC[C@@](N[*:1])(C(=O)[*:2])C1; B5″ = 2-amino-2-(pent-4-en-1-yl)hept-6-enoic acid (bis-olefin stapling residue), C=CCCCC(CCCC=C)(N[*:1])C(=O)[*:2]; B5(5) = 2-amino-2-(pent-4-en-1-yl)hept-6-enoic acid (two olefin arms), C=CCCCC(CCCC=C)(N[*:1])C(=O)[*:2]; B5(3) = 2-amino-2-(pent-4-en-1-yl)hept-6-enoic acid, two olefin arms, C=CCCCC(CCCC=C)(N[*:1])C(=O)[*:2]; 2F3MeF(3) = aromatic amino acid residue, Cc1cccc(C[C@H](N[*:1])C(=O)[*:2])c1F; 2F3MeF″ = aromatic residue, Cc1cccc(C[C@H](N[*:1])C(=O)[*:2])c1F; Phe(3-COOH) = N[C@@H](Cc1cccc(C(=O)O)c1)C(=O)O; 2F3MeF = Cc1cccc(C[C@H](N[*:1])C(=O)[*:2])c1F; Phe(2-Cl) = N[C@@H](Cc1ccccc1Cl)C(=O)O; Bta = N[C@@H](Cc1csc2ccccc12)C(=O)O; αAllylPro = C=CC[C@@]1(C(=O)O)CCCN1; BztA = aromatic amino acid residue; 4mampiperidine = not defined here; tBuAla = CC(C)(C)C[C@H](N)C(=O)O; Biphen33COOH = not defined here; 3Thi = N[C@@H](Cc1ccsc1)C(=O)O; Cha = N[C@@H](CC1CCCCC1)C(=O)O; TriAzLys(3) = not defined here; hSer = N[C@@H](CCO)C(=O)O; BztA″ = aromatic residue; TfeGA = not defined here; AsnR = not defined here; GlnR = not defined here; sAla = not defined here; PL3 = not defined here; B5 = not defined here A value given as a limit tells only on which side of the number the result lay.

To fix the notation:
B1: I-132 (peptide)
peptide: Ac-[αAllylPro]D[tBuAla][B5]D[Phe(3-COOH)][GlnR](29N2spiroundecane)AFL[PyrS2″][2F3MeF″][BztA″][GlnR]A-NH2
modifications: reading uncertain; also: staple links not given here, printed as Ac-PL3-Asp-Npg-B5-Asp-3COOHF-[29N2spiroundecane]GlnR-Ala-Phe-Leu-PyrS2-2F3MeF-BztA-GlnR-Ala-NH2
B2: I-123 (peptide)
peptide: Ac-[αAllylPro]D[tBuAla][B5(4)]D[TfeGA]FAFK[PyrS2″][2F3MeF][Bta][GlnR]A-NH2
modifications: bridge 10-14; not fully specified (bridges); reading uncertain; also: Lys*3 and GlnR*3 marked *3
B3: I-58 (peptide)
peptide: Ac-[αAllylPro]D[tBuAla][B5(3)]D[Phe(3-COOH)]AAFK[PyrS2(3)][2F3MeF″][Bta][AsnR]A-NH2
modifications: bridge 10-14; not fully specified (bridges); printed as Ac-PL3-Asp-Npg-B5-Asp-3COOHF-Ala-Ala-Phe-Lys*3-PyrS2-2F3MeF-BztA-AsnR*3-Ala-NH2; reading uncertain
B4: I-128 (peptide)
peptide: Ac-[αAllylPro]D[tBuAla][B5(4)]D[TfeGA]AAFK[PyrS2″][2F3MeF][Bta][GlnR]L-NH2
modifications: bridge 10-14; not fully specified (bridges); reading uncertain; also: Lys*3 and GlnR*3 marked *3
B5: I-130 (peptide)
peptide: Ac-[αAllylPro]D[tBuAla][B5]D[Phe(3-COOH)][GlnR]AFL[PyrS2″][2F3MeF″][BztA″][(39N2spiroundecane)GlnR]A-NH2
modifications: reading uncertain; also: staple links not given here, printed as Ac-PL3-Asp-Npg-B5-Asp-3COOHF-GlnR-Ala-Phe-Leu-PyrS2-2F3MeF-BztA-[39N2spiroundecane]GlnR-Ala-NH2
B6: I-59 (peptide)
peptide: Ac-[αAllylPro]D[tBuAla][B5(3)]D[Phe(3-COOH)]AAFK[PyrS2(3)][2F3MeF″][Bta][AsnR]A-NH2
modifications: bridge 10-14; not fully specified (bridges); printed as Ac-PL3-Asp-Npg-B5-Asp-3COOHF-Ala-Ala-Phe-Lys*3-PyrS2-2F3MeF-BztA-AsnR*3-Ala-NH2; reading uncertain
B7: I-86 (peptide)
peptide: Ac-[PL3]D[tBuAla][B5]N[Phe(3-COOH)]SAFK[PyrS2″][3Thi][BztA][GlnR]A-NH2
modifications: staple 1-4 (inferred); bridge 10-14; not fully specified (residue 10, bridges); printed as Ac-PL3-Asp-Npg-B5-Asn-3COOHF-Ser-Ala-Phe-Lys*3-PyrS2-3Thi-BztA-GlnR*3-Ala-NH2; reading uncertain; also: Lys10 and GlnR14 marked *3
B8: I-85 (peptide)
peptide: Ac-[PL3][hSer][tBuAla][B5]D[Phe(3-COOH)]SAFK[PyrS2″][3Thi][BztA][GlnR]A-NH2
modifications: staple 1-4 (inferred); bridge 10-14; not fully specified (residue 10, bridges); printed as Ac-PL3-Hse-Npg-B5-Asp-3COOHF-Ser-Ala-Phe-Lys*3-PyrS2-3Thi-BztA-GlnR*3-Ala-NH2; reading uncertain; also: Lys10 and GlnR14 marked *3
B9: I-81 (peptide)
peptide: Ac-[PL3][hSer][tBuAla][B5]D[Phe(3-COOH)]AAFK[PyrS2″][3Thi][BztA][GlnR]A-NH2
modifications: staple 1-4 (inferred); bridge 10-14; not fully specified (residue 10, bridges); printed as Ac-PL3-Hse-Npg-B5-Asp-3COOHF-Ala-Ala-Phe-Lys*3-PyrS2-3Thi-BztA-GlnR*3-Ala-NH2; reading uncertain
B10: I-89 (peptide)
peptide: Ac-[PL3][hSer][tBuAla][B5]D[Phe(3-COOH)]QAFK[PyrS2″][3Thi][BztA][GlnR]A-NH2
modifications: staple 1-4 (inferred); bridge 10-14; not fully specified (residue 10, bridges); printed as Ac-PL3-Hse-Npg-B5-Asp-3COOHF-Gln-Ala-Phe-Lys*3-PyrS2-3Thi-BztA-GlnR*3-Ala-NH2; reading uncertain; also: Lys10 and GlnR14 marked *3
B11: I-54 (peptide)
peptide: Ac-[αAllylPro]D[tBuAla][B5(3)]D[Phe(3-COOH)]K(Biphen33COOH)AFL[PyrS2(3)][Phe(2-Cl)][Bta]K-NH2
modifications: not fully specified (residue 6, bridges); printed as Ac-PL3-Asp-Npg-B5-Asp-3COOHF-[Biphen33COOH]Lys-Ala-Phe-Leu-PyrS2-2ClF-BztA-Lys-NH2; reading uncertain
B12: I-117 (peptide)
peptide: Ac-[αAllylPro]D[tBuAla][B5″]N[TfeGA]AAFK[PyrS2″][2F3MeF][Bta][GlnR]A-NH2
modifications: bridge 10-14; not fully specified (bridges); reading uncertain; also: Lys*3 and GlnR*3 marked *3
B13: I-148 (peptide)
peptide: Ac-[αAllylPro]N[Cha][B5″]DQ[hSer]AF[GlnR][PyrS2″]F[Bta]K-NH2
modifications: bridge 10-14; reading uncertain; also: PL3-B5 and PyrS2 links not placed, printed as Ac-PL3-Asn-Cha-B5-Asp-Gln-Hse-Ala-Phe-GlnR*3-PyrS2-Phe-BztA-Lys*3-NH2
B14: I-93 (peptide)
peptide: Ac-[αAllylPro]D[tBuAla][B5(4)]D[Phe(3-COOH)][GlnR]AFL[PyrS2″][2F3MeF(3)][BztA][GlnR](4aminopiperidine)A-NH2
modifications: staple 1-4 (inferred); not fully specified (bridges); printed as Ac-PL3-Asp-Npg-B5-Asp-3COOHF-GlnR-Ala-Phe-Leu-PyrS2-2F3MeF-BztA-[4aminopiperidine]GlnR-Ala-NH2; reading uncertain
B15: I-96 (peptide)
peptide: Ac-[αAllylPro]D[tBuAla][B5(4)]D[Phe(3-COOH)][GlnR]AFL[PyrS2″][2F3MeF(3)][BztA][GlnR](4mampiperidine)A-NH2
modifications: staple 1-4 (inferred); not fully specified (bridges); printed as Ac-PL3-Asp-Npg-B5-Asp-3COOHF-GlnR-Ala-Phe-Leu-PyrS2-2F3MeF-BztA-[4mampiperidine]GlnR-Ala-NH2; reading uncertain
B16: I-36 (peptide)
peptide: Ac-[αAllylPro]D[tBuAla][B5(5)]D[Phe(3-COOH)]AAF[AsnR][PyrS2(5)][3Thi][Bta]K-NH2
modifications: bridge 10-14; not fully specified (bridges); printed as Ac-PL3-Asp-Npg-B5-Asp-3COOHF-Ala-Ala-Phe-AsnR*3-PyrS2-3Thi-BztA-Lys*3-NH2; reading uncertain
B17: I-91 (peptide)
peptide: Ac-[PL3]D[tBuAla][B5][hSer][Phe(3-COOH)]QAFK[PyrS2″][3Thi][BztA][GlnR]A-NH2
modifications: staple 1-4 (inferred); bridge 10-14; not fully specified (residue 10, bridges); printed as Ac-PL3-Asp-Npg-B5-Hse-3COOHF-Gln-Ala-Phe-Lys*3-PyrS2-3Thi-BztA-GlnR*3-Ala-NH2; reading uncertain; also: Lys10 and GlnR14 marked *3
B18: I-94 (peptide)
peptide: Ac-[αAllylPro]D[tBuAla][B5(4)]D[Phe(3-COOH)][GlnR](4aminopiperidine)AFL[PyrS2″][2F3MeF(3)][BztA][GlnR]A-NH2
modifications: staple 1-4 (inferred); not fully specified (bridges); printed as Ac-PL3-Asp-Npg-B5-Asp-3COOHF-[4aminopiperidine]GlnR-Ala-Phe-Leu-PyrS2-2F3MeF-BztA-GlnR-Ala-NH2; reading uncertain
B19: I-27 (peptide)
peptide: Ac-[αAllylPro]D[tBuAla][B5(4)]D[Phe(3-COOH)][sAla]AF[TriAzLys(3)][PyrS2(6)][3Thi][Bta]Q-NH2
modifications: triazole 7-10; not fully specified (bridges); printed as Ac-PL3-Asp-Npg-B5-Asp-3COOHF-sAla*3-Ala-Phe-TriAzLys*3-PyrS2-3Thi-BztA-Gln-NH2; reading uncertain

The first test addresses beta-catenin (human). Put plainly: cell-based or functional assay.
In turn, B1 returned a NanoBRET Abs IC50 of more than 10000 nM.

With B2, the NanoBRET Abs IC50 was more than 10000 nM.

The molecule B3 yielded a NanoBRET Abs IC50 of more than 10000 nM.

For B4, the NanoBRET Abs IC50 (bin >3.0 uM) was less than 10000 nM.

In turn, B5 yielded a NanoBRET Abs IC50 of more than 10000 nM.

Molecule B6 registered a NanoBRET Abs IC50 of more than 10000 nM.

Another test deals with beta-catenin (human). Put plainly: fluorescence polarization; bin >50 nM. On the technique in general: Fluorescence polarisation rises when a labelled molecule tumbles more slowly, as on binding a larger partner.
Chain of beta-catenin (human) (B6V8E6 146-665 limits assumed): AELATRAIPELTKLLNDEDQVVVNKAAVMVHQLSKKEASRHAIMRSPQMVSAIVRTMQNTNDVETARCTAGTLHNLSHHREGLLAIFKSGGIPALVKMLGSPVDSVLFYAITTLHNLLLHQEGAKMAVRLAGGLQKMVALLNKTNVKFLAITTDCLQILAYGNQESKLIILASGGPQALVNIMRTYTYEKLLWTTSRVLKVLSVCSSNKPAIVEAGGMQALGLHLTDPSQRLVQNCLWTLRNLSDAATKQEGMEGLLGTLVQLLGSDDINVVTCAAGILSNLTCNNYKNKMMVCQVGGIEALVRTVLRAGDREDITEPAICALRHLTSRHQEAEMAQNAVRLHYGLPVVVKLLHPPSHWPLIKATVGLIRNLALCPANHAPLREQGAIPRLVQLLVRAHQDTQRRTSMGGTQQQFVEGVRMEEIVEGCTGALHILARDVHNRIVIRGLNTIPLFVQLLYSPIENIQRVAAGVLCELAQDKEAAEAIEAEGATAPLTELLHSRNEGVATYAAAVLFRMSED
The molecule B1 registered a half-maximal inhibitory concentration (IC50) of less than 200 nM.

B7 had a concentration for half-maximal inhibition (IC50) of less than 200 nM.

On to B2, for which the IC50 was less than 200 nM.

The molecule B8 yielded an IC50 of less than 200 nM.

Consider B3, for which the IC50 was less than 200 nM.

For B4, the IC50 was less than 200 nM.

B9 yielded a concentration for half-maximal inhibition (IC50) of less than 200 nM.

Take B10: the 50% inhibitory concentration (IC50) is less than 200 nM.

Molecule B11 had an IC50 of less than 200 nM.

The molecule B5 returned a concentration for half-maximal inhibition (IC50) of less than 200 nM.

B6: the 50% inhibitory concentration (IC50) is less than 200 nM.

The target of another test is beta-catenin (human). Put plainly: fluorescence polarization; bin >200 nM.
B12 registered an IC50 of less than 750 nM.

Molecule B13 gave a concentration for half-maximal inhibition (IC50) of less than 750 nM.

The molecule B14 displayed an IC50 of less than 750 nM.

In the case of B15, the IC50 was less than 750 nM.

B16 had an IC50 of less than 750 nM.

Regarding B17, the IC50 is less than 750 nM.

For the molecule B18, the IC50 is less than 750 nM.

With B19, the IC50 is less than 750 nM.
